# From publication PMC6254359
# B1: Trim5α from Rhesus macaque, Bbox coiled-coil regions, residues 88–296 with the mutation [Rhesus macaque] / GABARAP [not stated] (parent)
# chain 1: PEEGQKVDHCARHGEKLLLFCQEDSKVICWLCKDSQEHRGHHTFLMEEVAQEYHVKLQTALEMLRQKQQEAEKLEADIREEKASWKIQIDYDKTNVSADFEQLREILDWEESNELQNLEKEEEDILKSLTKSETEMVQQTQYMRELISELEHRLQGSMMDLLQGVDGIIKRIENMTLKKPKTFHKNQRRVFRAPDLKGMLDMFRELTDA
# chain 2: MKFVYKEEHPFEKRRSEGEKIRKKYPDRVPVIVEKAPKARIGDLDKKKYLVPSDLTVGQFYFLIRKRIHLRAEDALFFFVNNVIPPTSATMGQLYQEHHEEDFFLYIAYSDESVYGL
# B2: Trim5α from Rhesus macaque, Bbox coiled-coil regions, residues 88–296 with the mutation [Rhesus macaque] / GABARAPL1 [not stated] (parent)
# chain 1: B1 chain 1
# chain 2: not shown
# B3: Trim5α from Rhesus macaque, Bbox coiled-coil regions, residues 88–296 with the mutation [Rhesus macaque] / LC3C [not stated] (parent)
# chain 1: B1 chain 1
# chain 2: MPPPQKIPSVRPFKQRKSLAIRQEEVAGIRAKFPNKIPVVVERYPRETFLPPLDKTKFLVPQELTMTQFLSIIRSRMVLRATEAFYLLVNNKSLVSMSATMAEIYRDYKDEDGFVYMTYASQETFG
# Variants of: B1
# Assay: SV-AUC c(s) analysis
# Conditions: with GABARAP; 20 μm equimolar concentration; read off a plot
row,Variant,screen value
1,chain 1 W109A,2.8 S

# Variants of: B2
# Assay: SV-AUC c(s) analysis
# Conditions: with GABARAPL1; equal concentration of 20 μm; read off a plot
row,Variant,screen value
1,chain 1 E110A,3 S
2,chain 1 E111K,2.9 S
3,chain 1 E119A,3 S
4,chain 1 E105A,2.9 S
5,chain 1 E105K,2.8 S

# Now from value to variant:
row,screen value,Variant
1,3 S,chain 1 Q116A
2,3.1 S,chain 1 Q102A
3,3 S,chain 1 S112A
4,2.9 S,chain 1 E119K

# Same assay, conditions: with autophagy-related protein LC3 B (LC3B), equal concentration of 20 μm, read off a plot
row,Variant,screen value
1,chain 1 E110A,2.8 S
2,chain 1 E111K,2.8 S
3,chain 1 E119A,2.8 S
4,chain 1 E105A,2.8 S
5,chain 1 E105K,2.7 S

# Further lines, results first:
row,screen value,Variant
1,3 S,chain 1 Q116A
2,2.9 S,chain 1 Q102A
3,3 S,chain 1 S112A
4,2.8 S,chain 1 E119K

# Same assay, conditions: with GABARAPL1; 20 μm equimolar concentration; read off a plot
row,Variant,screen value
1,chain 1 W109A,2.8 S

# Same assay, conditions: with autophagy-related protein LC3 B (LC3B), 20 μm equimolar concentration, read off a plot
row,Variant,screen value
1,chain 1 W109A,2.7 S

# Variants of: B3
# Assay: SV-AUC c(s) analysis
# Conditions: with LC3C; 20 μm equimolar concentration; read off a plot
row,Variant,screen value
1,chain 1 PEEGQKVDHCARHGEKLLLFCQEDSKVICWLCKDSQEHRGHHTFLMEEVAQEYHVKLQTALEMLRQKQQEAEKLEADIREEKASWKIQIDYDKTNVSADFEQLREILDAEESNELQNLEKEEEDILKSLTKSETEMVQQTQYMRELISELEHRLQGSMMDLLQGVDGIIKRIENMTLKKPKTFHKNQRRVFRAPDLKGMLDMFRELTDA [chain 1 W109A],2.7 S
